# Test results published in patent publication US20230038638A1, “COMPLEMENT FACTOR I-RELATED COMPOSITIONS AND METHODS” (published 2023).
# Residue numbers refer to the chain shown, from its start.
# Tests used:
# human C4b (human) [1] = target: T1, human C4b (human) (UniProt P0C0L5)
# T1 sequence: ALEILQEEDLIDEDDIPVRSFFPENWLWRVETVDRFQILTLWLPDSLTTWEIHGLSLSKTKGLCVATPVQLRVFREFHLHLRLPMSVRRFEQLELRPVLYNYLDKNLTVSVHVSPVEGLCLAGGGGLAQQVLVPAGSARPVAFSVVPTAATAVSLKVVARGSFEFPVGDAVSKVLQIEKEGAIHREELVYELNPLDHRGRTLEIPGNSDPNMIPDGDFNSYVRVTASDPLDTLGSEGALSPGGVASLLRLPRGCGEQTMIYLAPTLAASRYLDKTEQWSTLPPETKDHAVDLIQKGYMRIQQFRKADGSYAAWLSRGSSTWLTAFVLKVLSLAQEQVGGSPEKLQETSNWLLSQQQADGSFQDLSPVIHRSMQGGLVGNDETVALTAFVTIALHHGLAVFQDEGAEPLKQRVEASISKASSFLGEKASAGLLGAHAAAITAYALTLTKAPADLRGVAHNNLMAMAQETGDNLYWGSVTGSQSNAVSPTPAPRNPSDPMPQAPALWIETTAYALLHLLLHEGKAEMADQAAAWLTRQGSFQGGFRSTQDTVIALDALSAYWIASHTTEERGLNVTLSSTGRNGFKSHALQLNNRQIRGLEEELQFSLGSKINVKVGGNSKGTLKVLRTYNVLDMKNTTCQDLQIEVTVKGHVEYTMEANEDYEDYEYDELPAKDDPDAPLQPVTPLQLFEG
# [2] = target: soluble human C3b (human) (UniProt P01024)
# [3] = target: soluble human C3b (human) (UniProt P01024); remark: listed apart in the source
# human C4b (human) [4] = target: T2, human C4b (human) (UniProt P0C0L4)
# T2 sequence: T1 sequence with T151A, G317D, L364P, S365C, I368L, H369D, S420N, A451V, R454L, A530S
C4b Screen Ref Fold (fold vs CFI-HSA wild type) (human C4b (human) [1]),iC3b Screen Ref Fold (fold vs CFI-HSA wild type) [2],iC3b EC50 [3] [nM],C4c EC50 (nM) (human C4b (human) [4]),C4b Screen Ref Fold (fold of CFI-HSA wild type) (human C4b (human) [1]),iC3b Screen Ref Fold (fold of CFI-HSA wild type) [2],C4c EC50 (human C4b (human) [4]) [nM],Substance
4.7,1.21,12.3,162,–,–,–,CFI-HSA variant E457D (enzyme)
0.33,1.16,16.1,381,–,–,–,CFI-HSA variant E530Y (enzyme)
–,–,3.1,4.1,4.54,2.12,–,CFI-HSA variant E457G; N531G; D425R; E416A (enzyme)
0.31,0.26,78.7,886,–,–,–,CFI-HSA variant E457H (enzyme)
3.09,0.28,99.9,266,–,–,–,CFI-HSA variant R557K (enzyme)
1.15,1.08,12.8,425,–,–,–,CFI-HSA variant E416A (enzyme)
–,–,8.2,–,5.28,2.34,48.3,CFI-HSA variant E457G; N531G; P535G; K534Q (enzyme)
0.05,0.82,43.3,> 1000,–,–,–,CFI-HSA variant Y408H (enzyme)
–,–,19.4,–,0.1,0.53,865,CFI-HSA variant P535G; D425K (enzyme)
6.42,0.95,5.6,29.3,–,–,–,CFI-HSA variant N531G; E457G; E461Q (enzyme)
2.13,1.36,10.9,359,–,–,–,CFI-HSA variant N422K (enzyme)
–,–,29.7,–,1.53,0.55,180,CFI-HSA variant G556S (enzyme)
0.08,0.98,21.8,> 1000,–,–,–,CFI-HSA variant E530F (enzyme)
1.88,0.61,19.2,225,–,–,–,CFI-HSA variant Y408F (enzyme)
–,–,7.1,–,6.34,0.96,16.9,CFI-HSA variant E457G; N531G; K534Q (enzyme)
1.76,1.53,21.7,595,–,–,–,CFI-HSA variant K534Q (enzyme)
4.31,1.28,22.2,222,–,–,–,CFI-HSA variant E457G; E461G (enzyme)
0.51,0.89,33.7,439,–,–,–,CFI-HSA variant K504R (enzyme)
–,–,6.7,–,5.87,0.92,17.5,CFI-HSA variant E457G; N531G; P558S (enzyme)
–,–,50.9,–,0,0.27,> 1000,CFI-HSA variant Y408L; P535G (enzyme)
0.55,0.27,55.4,347,–,–,–,CFI-HSA variant F464Y (enzyme)
